The assay addresses MGAT1 (GnT1) (UniProt P26572). As to the kind of experiment: co-immunoprecipitation, western blot. As to conditions: reference: wild type, mitotic; sites S12. Background: In western blotting, separated proteins are transferred to a membrane and probed.

Experimental findings from article PMC9730451 are described below.

Take “MAN1A1 (Golgi α-1,2-mannosidase IA) (from UniProt P33908) S12A, mitotic”: the “binding against the reference” value is recorded as “stronger”.
